The values that follow come from publication PMC6497270, “Thermodynamic investigation of DNA-binding affinity of wild-type and mutant transcription factor RUNX1”.

Series [1] has as its target RUNX1 K83E;CBFβ (Homo sapiens;Homo sapiens?, UniProt Q01196;Q13951 1-181;1-141, K83E|). Briefly: ITC; RUNX1:CBFβ 1:2; no significant enthalpy change; ITC: 20 uM RUNX1 in cell, 100 uM DNA in syringe, 10 mM HEPES-NaOH pH 7.5, 180 mM NaCl, 0.005% Tween 20; temperature stated as 277 K (Methods) but 25 °C (Results). Conditions: protein: recombinant;recombinant; tags: N-terminal His6;; copies: 1;1; (21 bp).

In series [2] the target is RUNX1 H179K;CBFβ (Homo sapiens;Homo sapiens?, UniProt Q01196;Q13951 1-181;1-141, H179K|). As to the kind of experiment: ITC; RUNX1:CBFβ 1:2; ITC: 20 uM RUNX1 in cell, 100 uM DNA in syringe, 10 mM HEPES-NaOH pH 7.5, 180 mM NaCl, 0.005% Tween 20; temperature stated as 277 K (Methods) but 25 °C (Results). Conditions: protein: recombinant;recombinant; tags: N-terminal His6;; copies: 1;1; (21 bp). (ITC needs no label: the signal is the heat of the interaction.)

Series [3] has as its target RUNX1 R139Q;CBFβ (Homo sapiens;Homo sapiens?, UniProt Q01196;Q13951 1-181;1-141, R139Q|). The series is described as above. Conditions: protein: recombinant;recombinant; tags: N-terminal His6;; copies: 1;1; (21 bp).
In series [4] the target is RUNX1 WT (RUNT-containing);CBFβ (Homo sapiens;Homo sapiens?, UniProt Q01196;Q13951 1-181;1-141, |). Described as above. Conditions: protein: recombinant;recombinant; tags: N-terminal His6;; copies: 1;1; (21 bp).
Series [5] has as its target RUNX1 K83R;CBFβ (Homo sapiens;Homo sapiens?, UniProt Q01196;Q13951 1-181;1-141, K83R|). The series is described as above. The settings on record: protein: recombinant;recombinant; tags: N-terminal His6;; copies: 1;1; (21 bp).
Series [6] has as its target RUNX1 K83R/H179K;CBFβ (Homo sapiens;Homo sapiens?, UniProt Q01196;Q13951 1-181;1-141, K83R;H179K|). Described as above. The settings on record: protein: recombinant;recombinant; tags: N-terminal His6;; copies: 1;1; (21 bp).
Series [7] addresses RUNX1 S114L;CBFβ (Homo sapiens;Homo sapiens?, UniProt Q01196;Q13951 1-181;1-141, S114L|). The series is described as above. Conditions: protein: recombinant;recombinant; tags: N-terminal His6;; copies: 1;1; (21 bp).
Series [8] concerns the target RUNX1 K83E (Homo sapiens, UniProt Q01196 1-181, K83E). Briefly: ITC; without CBFβ; no significant enthalpy change; ITC: 20 uM RUNX1 in cell, 100 uM DNA in syringe, 10 mM HEPES-NaOH pH 7.5, 180 mM NaCl, 0.005% Tween 20; temperature stated as 277 K (Methods) but 25 °C (Results). Conditions: protein: recombinant; tags: N-terminal His6; (21 bp).
Series [9] deals with RUNX1 H179K (Homo sapiens, UniProt Q01196 1-181, H179K). As to the kind of experiment: ITC; without CBFβ; ITC: 20 uM RUNX1 in cell, 100 uM DNA in syringe, 10 mM HEPES-NaOH pH 7.5, 180 mM NaCl, 0.005% Tween 20; temperature stated as 277 K (Methods) but 25 °C (Results). The settings on record: protein: recombinant; tags: N-terminal His6; (21 bp).
Series [10] deals with RUNX1 R139Q (Homo sapiens, UniProt Q01196 1-181, R139Q). The description is as above. Conditions: protein: recombinant; tags: N-terminal His6; (21 bp).
Series [11] concerns the target RUNX1 K83R/H179K (Homo sapiens, UniProt Q01196 1-181, K83R;H179K). The description is as above. Conditions: protein: recombinant; tags: N-terminal His6; (21 bp).
Series [12] concerns the target RUNX1 WT (RUNT-containing) (Homo sapiens, UniProt Q01196 1-181). The series is described as above. The settings on record: protein: recombinant; tags: N-terminal His6; (21 bp).
Series [13] concerns the target RUNX1 K83R (Homo sapiens, UniProt Q01196 1-181, K83R). Described as above. The settings on record: protein: recombinant; tags: N-terminal His6; (21 bp).
Series [14] has as its target RUNX1 S114L (Homo sapiens, UniProt Q01196 1-181, S114L). The series is described as above. The settings on record: protein: recombinant; tags: N-terminal His6; (21 bp).

Chain of RUNX1 K83R/H179K (Q01196 1-181 K83R/H179K): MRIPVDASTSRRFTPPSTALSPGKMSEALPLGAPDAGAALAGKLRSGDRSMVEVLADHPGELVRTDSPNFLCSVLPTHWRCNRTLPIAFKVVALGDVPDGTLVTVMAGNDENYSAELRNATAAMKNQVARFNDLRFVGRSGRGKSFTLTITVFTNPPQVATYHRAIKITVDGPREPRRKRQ
Chain of RUNX1 K83R/H179K;CBFβ (Q01196 1-181 K83R/H179K, chain 1 of 2): as the sequence (Q01196 1-181 K83R/H179K) above
Chain of RUNX1 K83R/H179K;CBFβ (Q13951 1-141, chain 2 of 2): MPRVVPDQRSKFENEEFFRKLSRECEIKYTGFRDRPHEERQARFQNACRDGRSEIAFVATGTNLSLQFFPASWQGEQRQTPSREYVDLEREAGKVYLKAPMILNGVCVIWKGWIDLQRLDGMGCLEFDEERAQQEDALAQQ
Chain of RUNX1 H179K;CBFβ (Q01196 1-181 H179K, chain 1 of 2): as the sequence (Q01196 1-181 K83R/H179K) above, with R83K counted along it
Chain of RUNX1 H179K;CBFβ (Q13951 1-141, chain 2 of 2): as the sequence (Q13951 1-141, chain 2 of 2) above
Chain of RUNX1 H179K (Q01196 1-181 H179K): as the sequence (Q01196 1-181 K83R/H179K) above, with R83K counted along it
Chain of RUNX1 K83R;CBFβ (Q01196 1-181 K83R, chain 1 of 2): as the sequence (Q01196 1-181 K83R/H179K) above, with K179H counted along it
Chain of RUNX1 K83R;CBFβ (Q13951 1-141, chain 2 of 2): as the sequence (Q13951 1-141, chain 2 of 2) above
Chain of RUNX1 K83R (Q01196 1-181 K83R): as the sequence (Q01196 1-181 K83R/H179K) above, with K179H counted along it
Chain of RUNX1 WT (RUNT-containing) (Q01196 1-181): as the sequence (Q01196 1-181 K83R/H179K) above, with R83K, K179H counted along it
Chain of RUNX1 WT (RUNT-containing);CBFβ (Q01196 1-181, chain 1 of 2): as the sequence (Q01196 1-181 K83R/H179K) above, with R83K, K179H counted along it
Chain of RUNX1 WT (RUNT-containing);CBFβ (Q13951 1-141, chain 2 of 2): as the sequence (Q13951 1-141, chain 2 of 2) above
Chain of RUNX1 R139Q;CBFβ (Q01196 1-181 R139Q, chain 1 of 2): as the sequence (Q01196 1-181 K83R/H179K) above, with R83K, R139Q, K179H counted along it
Chain of RUNX1 R139Q;CBFβ (Q13951 1-141, chain 2 of 2): as the sequence (Q13951 1-141, chain 2 of 2) above
Chain of RUNX1 R139Q (Q01196 1-181 R139Q): as the sequence (Q01196 1-181 K83R/H179K) above, with R83K, R139Q, K179H counted along it
Chain of RUNX1 S114L;CBFβ (Q01196 1-181 S114L, chain 1 of 2): as the sequence (Q01196 1-181 K83R/H179K) above, with R83K, S114L, K179H counted along it
Chain of RUNX1 S114L;CBFβ (Q13951 1-141, chain 2 of 2): as the sequence (Q13951 1-141, chain 2 of 2) above
Chain of RUNX1 S114L (Q01196 1-181 S114L): as the sequence (Q01196 1-181 K83R/H179K) above, with R83K, S114L, K179H counted along it
Chain of RUNX1 K83E (Q01196 1-181 K83E): as the sequence (Q01196 1-181 K83R/H179K) above, with R83E, K179H counted along it
Chain of RUNX1 K83E;CBFβ (Q01196 1-181 K83E, chain 1 of 2): as the sequence (Q01196 1-181 K83R/H179K) above, with R83E, K179H counted along it
Chain of RUNX1 K83E;CBFβ (Q13951 1-141, chain 2 of 2): as the sequence (Q13951 1-141, chain 2 of 2) above

B1: CSF-1R promoter 21 bp DNA (dsDNA)
DNA 1: CAAACTCTGTGGTTGCCTTGC
DNA 2: GCAAGGCAACCACAGAGTTTG
Turning to B1, the binding result in series [1] and in [8] was “no binding” each time. The Kd came to 100 ± 40 nM in series [2]; 3350 ± 800 nM in [3]; 230 ± 50 nM in series [4]; 160 ± 30 nM in series [5]; 73 ± 5 nM in [6]; 390 ± 80 nM in [7]. The Kd was found to be 350 ± 120 nM in series [9]; 1480 ± 510 nM in [10]; 290 ± 50 nM in series [11]; 490 ± 10 nM in series [12]; 480 ± 150 nM in series [13]; 700 ± 80 nM in series [14].

By Kd is commonly meant the constant that tells how readily two partners part at equilibrium.
